{"source": "paper PMC10746158", "about": "(mBio, 2023)", "proteins": {"B1": {"name": "Sulfolobus acidocaldarius GPN-loop GTPase SaGPN (Saci_1281) (enzyme)", "chain": "YFIFVLGTAGSGKTTLVKALQDYLLNNELDTAIINLDPAVEVLPYKPDIDAREYVDVYDVMNKYELGPNSSLVISVDLLLTKAKELKEDLNQLQANYVLVDTPGQIELFAYRDTGKILSSFISEGSKSVSVFLFDSYLSKDPKSFLSLFLLSSSIKFRIDMPQISVLSKVDLLSSSELERMRSWIEDGSIIDELGSIDEYSFELVKTIVENLESFPIPVSSTNFSGLDQLYAEVQKVLAGGEDFETEEPNPRL", "notes": "SaGPN (Saci_1281), the solitary GPN-loop GTPase of Sulfolobus acidocaldarius, Uniprot Q4J9A7; residues Y2-A240 were built in both structures, 14 amino acids at the C-terminus are disordered; printed mass 30.5 kDa; Crystallised with GppNHp or GDP and Mg2+; source: E. coli BL21(DE3) Rosetta, purified (heat treatment, Ni-NTA, SEC); not shown: His10, N-terminal, kept"}}, "target": "the molecule itself", "experiment": "SEC; HiLoad 16/60 Superdex 200 pg; 150 mM NaCl, 50 mM Tris, 10 mM MgCl2, pH 8.0; monodisperse peak at ~60 kDa against 30.5 kDa for the monomer"}
{"protein": "B1", "values": [{"measurement": "stoichiometry N", "value": 2}]}
